# Laboratory results taken from the DeepSol protein solubility set.
# Assay: soluble on expression in E. coli; label from the status in PepcDB or PDB records
row,Sequence,soluble on expression in E. coli
1,SNAMNILIIGNGGREHALGWKAAQSPLADKIYVAPGNAGTALEPTLENVDIAATDIAGLLAFAQSHDIGLTIVGPEAPLVIGVVDAFRAAGLAIFGPTQAAAQLEGSKAFTKDFLARHNIPSAEYQNFTDVEAALAYVRQKGAPIVIKADGLAAGKGVIVAMTQEEAETAVNDMLAGNAFGDAGHRIVVEEFLDGEEASFIVMVDGENVLPMATSQDHKRVGDGDTGPNTGGMGAYSPAPVVTDDVHQRVMDQVIWPTVRGMAAEGNIYTGFLYAGLMISADGQPKVIEFNCRFGDPETQPIMLRMRSDLVELCLAGTQGKLNEKTSDWDERPSLGVVLAAGGYPADYRQGDVIHGLPQQEVKDGKVFHAGTKLNGNHEVVTNGGRVLCVTALGETVAQAQQYAYQLAEGIQWEGVFCRKDIGYRAIARGK,soluble
2,SNAMNLNQLDIIVSNVPQVCADLEHILDKKADYANDGFAQFTIGSHCLMLSQNHLVPLENFQSGIIIHIEVEDVDQNYKRLNELGIKVLHGPTVTDWGTESLLVQGPAGLVLDFYRMK,soluble
3,SNAMTGTLLSFGHGYTARVLSRALAPQGWRIIGTSRNPDQMEAIRASGAEPLLWPGEEPSLDGVTHLLISTAPDSGGDPVLAALGDQIAARAAQFRWVGYLSTTAVYGDHDGAWVDETTPLTPTAARGRWRVMAEQQWQAVPNLPLHVFRLAGIYGPGRGPFSKLGKGGIRRIIKPGQVFSRIHVEDIAQVLAASMARPDPGAVYNVCDDEPVPPQDVIAYAAELQGLPLPPAVDFDKADLTPMARSFYSENKRVRNDRIKEELGVRLKYPNYRVGLEALQADAET,soluble
4,SNFLEIDIFNPQTVGVGRARFTTYEVRMRTNLPIFKLKESCVRRRYSDFEWLKNELERDSKIVVPPLPGKALKRQLPFRGDEGIFEESFIEERRQGLEQFINKIAGHPLAQNERCLHMFLQEEAIDRNYVPGK,soluble
5,SNIEALADKVRTYLEAGQIDGFVRTLRARPEAGGKVPVFVFHPAGGSTVVYEPLLGRLPADTPMYGFERVEGSIEERAQQYVPKLIEMQGDGPYVLVGWSLGGVLAYACAIGLRRLGKDVRFVGLIDAVRAGEEIPQTKEEIRKRWDRYAAFAEKTFNVTIPAIPYEQLEELDDEGQVRFVLDAVSQSGVQIPAGIIEHQRTSYLDNRAIDTAQIQPYDGHVTLYMADRYHDDAIMFEPRYAVRQPDGGWGEYVSDLEVVPIGGEHIQAIDEPIIAKVGEHMSRA,soluble
6,SNILEKVVLKVLEDQQNIRLIRELLQTLYTSLCTLVQRVGKSVLVGNINMWVYRMETILHWQQQLNNIQITRPAFKGLTFTDLPLCLQLNIMQRLSDGRDLVSLGQAAPDLHVLSEDRLLWKKLCQYHFSERQIRKRLILSDKGQLDWKKMYFKLVRCYPRKEQYGDTLQLRKHCHILSWKGTDHPCTANNPESCSVSLSPQDFINLFKF,not soluble
7,SNPLCSRCNRVVYPTEKVNCLDKYWHKGCFSCEVCKMTLNMKNYKGFEKRPYCNAHYPKTSFTSVADTPENLRLKQQSKMQSQVLYKEEFEKNKGKGFSVVADTPELQRIKKTQDQISNIKYHEDFEKSRSGGDTPLPLTPQLNTPPAYPSSAASQNYHYEPEPVRPAAAAPPPSSGKRYRAVYDYTAADEDEVSFMDGDMIVDVQQIDEGWMYGRVERTGQQGMLPANYVEAM,soluble
8,SNSANAADSGTLNYEVYKYNTNDTSIANDYFNKPAKYIKKNGKLYVQITVNHSHWITGMSIEGHKENIISKNTAKDERTSEFEVSKLNGKIDGKIDVYIDEKVNGKPFKYDHHYNITYKFNGPTDVAGANAP,not soluble
9,SPEALRIGYQKGSIGMVLAKSHQLLEKRYPESKISWVEFPAGPQMLEALNVGSIDLGSTGDIPPIFAQAAGADLVYVGVEPPKPKAEVILVAENSPIKTVADLKGHKVAFQKGSSSHNLLLRALRQAGLKFTDIQPTYLTPADARAAFQQGNVDAWAIWDPYYSAALLQGGVRVLKDGTDLNQTGSFYLAARPYAEKNGAFIQGVLATFSEADALTRSQREQSIALLAKTMGLPAPVIASYLDHRPPTTIKPVNAEVAALQQQTADLFYENRLVPKKVDIRQRIWQPTQLEGKQLEFRVPGNENLYFQ,soluble
10,SPEWPPCLSVAPALVITMAAGKGAPLSPSAENRWRLSEPELGRGCKPVLLEKTNRLGPEAAVGRAGRDVGSAELALLVAPGKPRPGKPLPPKTRGEQRQSAFTELPRMKDRQVDAQAQEREHDDPTGQPGAPQLTQNIPRGPAGSKVFSVWPSGARSEQRSAFSKPTKRPAERPELTSVFPAGESADALGELSGLLNTTDLACWGRLSTPKLLVGDLWNLQALPQNAPLCSTFLGAPTLWLEHTQAQVPPPSSSSTTSWALLPPTLTSLGLSTQNWCAKCNLSFRLTSDLVFHMRSHHKKEHAGPDPHSQKRREEALACPVCQEHFRERHHLSRHMTSHS,soluble
11,SPGRSSSNSGSTGFISFSGVESALSSLKNFQACINSGMDTASSVALDLVESQTEVSSEYSMDKAMVEFATLDRQLNHYVKAVQSTINHVKEERPEKIPDLKLLVEKKFLALQSKNSDADFQNNEKFVQFKQQLKELKKQCGLQADREADGTEGVDEDIIVTQSQTNFTCPITKEEMKKPVKNKVCGHTYEEDAIVRMIESRQKRKKKAYCPQIGCSHTDIRKSDLIQDEALRRAIENHNKKRHRHSE,soluble
12,SPKRETKKIKPSQEVIKEGPFLVAIHLKGIYMSNYTNSPCAACKFLRRKCTSDCVFAPYFPPEEPTKFANVHRIFGASNVSKILHEVAPHQREDAVNSLAYEAEARLKDPVYGCVGAISVLQRQVLRLQRELEETNADLMRYAGCLGGETTSAYGGRRG,soluble
13,SPNALDISRTYPTLHVLIQFNHRGLEVRLFRHGQFWAETRADVILRSKTKQVSFLSNGNYPSMDSRAPWNPWKNTYQAVLRAEPCRVTMDIYYKRVRPFRLPLVQKEWPVREENVFGLYRIFNAHYAGYFADLLIHDIETNPAPFMFRPRKQVFQTQGAAVSSMAQTLLPNDLASKAMGSAFTALLDANEDAQKAMKIIKTLSSLSDAWENVKETLNNPEFWKQLLSRCVQLIAGMTIAVMHPDPLTLLCLGTLTAAEITSQTSLCEEIAAKFKTIFITPPPRFPTISLFQQQ,not soluble
14,SPQRKVANNKQNIEYNDDNHVHHMHSHNPPIDCAILLPSKPRFIFQDVTVFNFNVSGNPSDLNTPVVQFNLSFRNPNANIRIYYDTLDVYAFYGNGSQQIIIPTPMPSTYQGHKEDSVWSPYIPVVPYNALYLDDQHHSRDGNMLMLHLDGRISWLLLGN,soluble
15,SPVSPAGSHKQQNFGLNNATQPKKSISFFATMKATSVKGYTGANQSRMAVSKTVLIPPELKTVEKPNPNIKTTQVFDINGTDVTPRPLYHPDPLTGTAKPSKLLTSQEGSLGSEFISSYSLYQNTINPSTLGQFTRSVLGSSTVSKSSVSASESIAEDLEEPSYKRERLTSFTDLQVIRAAPEKIVTKEDLEKNIEIILTETETLRFFDLPTVMVSVESEEAEKVTQRNKNYEVLCRNRLGNDLYVERMMQTFNGAPKNKDVQCDKIIMEDKGIMSTAWDLYDSYNAMELVSLSVKQSVVESSSKANVLPKDQDQRLPGSTTEKNSETSSLMDIENVILAKIHEDEEDHSDAILKSDKFHQDLFFMERVLMENIFQPKLAAYRQLPVLKEPEPEEPEDVLESAKHEEVEEESKKEEEEEIHAEESTIPANLERLWSFSCDLTKGLNVSSLAWNKTNPDLLAVGYGHFGFKEQKRGLACCWSIKNPMVTQTRIRSIFIWLLTKFS,soluble
16,SQAHVVDFELQYREAIDCPCRTFGVDRSIGQYLHILVCIEKIAVYQLHQIGSVLIGFVDTAFDYQRISRIDVGITYNIFEMPLGIIDPILQKQIMLDRLRP,not soluble
17,SQAPHKEHLYKLLVIGDLGVGKTSIIKRYVHQNFSSHYRATIGVDFALKVLHWDPETVVRLQLWDIAGQERFGNMTRVYYREAMGAFIVFDVTRPATFEAVAKWKNDLDSKLSLPNGKPVSVVLLANKCDQGKDVLMNNGLKMDQFCKEHGFVGWFETSAKENINIDEASRCLVKHILANECDLMESIEPDVVKPHLTSTKVASCSGCAKS,soluble
18,SQNRVPSSRTVSYFVAKPSSSEMEKLQLGPEDSILRMERIRFADDIPICFEVASIPYSLVSQYGKSEITNSFYKTLEAKSGHKIGHSNQTISAVQASEQIAEYLEIKRGDAILRVRQVSYFENGLPFEYVRTQYAGSRFEFYLEK,soluble
